{"source": "patent JP2024517985A", "about": "(dated 2024)", "binders": {"B1": {"name": "抗-CD300cモノクローナル抗体 CL7 (antibody, V domains shown)", "VH": "EVQLLESGGGLVQPGGSLRLSCAASGFTFSRYAMSWVRQAPGKGLEWVSAISGSGGSTYYADSVKGRFTISRDNSKNTLYLQMNSLRAEDTAVYYCARSSQGIFDIWGQGTLVTVSS", "VL": "QSVLTQPPSASGTPGQRVTISCSGNNIGTRRVHWYQQLPDTAPKLLIYSKNNRPSGVPDRFSGSKSGTSASLAISGLRSEDEADYYCAAWDDSLSGPVFGGGTKLTVL"}}, "key": {"[1]": {"target": "T1, CD300c抗原(11832-H08H、Sino Biological) (UniProt Q08708 21-183)", "T1 construct": "Bought recombinant protein; also called CD300c; CD300c antigen", "T1 sequence (looked up)": "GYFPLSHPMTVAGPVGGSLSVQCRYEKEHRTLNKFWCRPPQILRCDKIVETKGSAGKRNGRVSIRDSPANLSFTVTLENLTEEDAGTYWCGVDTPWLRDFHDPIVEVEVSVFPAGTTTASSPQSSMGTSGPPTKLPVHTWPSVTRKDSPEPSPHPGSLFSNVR", "experiment": "SPR, CD300c immobilised on CM5 chip, CL7 as analyte 0-6.25 ug/ml (rounded form of the same KD)"}, "[2]": {"target": "T2, 293T細胞及びTHP-1細胞の表面で過剰発現されたCD300c (UniProt Q08708 21-224, limits assumed)", "T2 construct": "whole, on cells; Expression construct not described; also called CD300c overexpressed on 293T cells; CD300c overexpressed on THP-1 cells", "T2 sequence (looked up)": "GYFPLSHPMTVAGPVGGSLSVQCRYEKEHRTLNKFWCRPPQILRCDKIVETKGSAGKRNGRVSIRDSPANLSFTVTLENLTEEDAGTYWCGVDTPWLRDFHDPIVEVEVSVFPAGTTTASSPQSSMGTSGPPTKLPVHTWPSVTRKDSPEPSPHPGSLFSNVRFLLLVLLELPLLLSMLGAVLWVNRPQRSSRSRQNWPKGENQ", "experiment": "flow cytometry (MFI) on THP-1 cells overexpressing CD300c, FITC anti-human IgG (H+L)"}, "[3]": {"target": "T2, 293T細胞及びTHP-1細胞の表面で過剰発現されたCD300c", "experiment": "flow cytometry (MFI) on 293T cells overexpressing CD300c, FITC anti-human IgG (H+L)"}, "[4]": {"target": "T1, CD300c抗原(11832-H08H、Sino Biological)", "experiment": "SPR, CD300c immobilised on CM5 chip, CL7 as analyte 0-6.25 ug/ml"}}, "data": [{"binder": "B1", "values": [{"measurement": "Kd", "setting": "[1]", "value": 0.52, "unit": "nM"}, {"measurement": "EC50", "setting": "[2]", "value": 2.6, "unit": "nM"}, {"measurement": "EC50", "setting": "[3]", "value": 2.7, "unit": "nM"}, {"measurement": "Kd", "setting": "[4]", "value": 0.52, "unit": "nM"}]}]}
